Assay results from patent publication US20230090114A1, “METHODS FOR PROMOTING WEIGHT LOSS” (89BIO LTD., priority 2020, published 2023).

Tests used:
Format in all cases: in vivo, CD-1 mice
[1] = Organ/tissue weights on T28; settings: for eWAT weight: T28
Protocol: On T28, after 4 hours of fasting, a terminal sampling of blood and organs/tissues was performed on anaesthetized mice (by a mixture of Ketamine/Xylazine, 80/10 mg/kg). A large blood sample was collected by cardiac puncture, and the following organ/tissues were collected, weighed, snap-frozen in liquid nitrogen and stored at −80° C. for further analyses: […]

[2] = Total spontaneous activity and rearing (METABOpack sessions); settings: T2; WD; 0.3 and 3 mg/kg; vs Liraglutide
Protocol: Horizontal spontaneous activity and rearing behavior were recorded every second by the Physiocage System. The analysis was performed by plotting data every 30 minutes in order to obtain the kinetic of the behaviors. For each mouse, the sums of the activity and rearing events were calculated for each nycthemeral phase (Diurnal period or DP; Nocturnal period or NP and Whole Day or WD). The means per nycthemeral phase were then calculated for each group for statistical comparisons.

[3] = Water intake (METABOpack sessions);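 as to cumulative water intake: water intake recorded in mL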
Description: During the METABOpack™ sessions, animals were housed singly in the Physiocage System (Panlab/Harvard apparatus), which was composed of: • 8 physiocages (LE1301) • 8 Air tight lids for mouse (LE1303) • 8 grid floors for mouse (LE1317) • 8 Feeding bottles for mouse (LE1306) • 2 Air supply and switching units for up to 4 home cages each (LE4004FL) • 1 O2/CO2 analyzer (LE405) • 1 acquisition software suite, METABOLISM (V3.0).
In the present project, a METABOpack™ session was consisted of a 12-hour period of acclimation followed by a 48-hour period of recording of the respiratory exchanges, FI, water intake (WI) and locomotor activity of each animal.
Following this acclimation period, the parameters cited above were automatically and simultaneously recorded for 48 hours, except for body weight that was measured manually every day.
The METABOpack™ sessions were conducted at the start (T1-2), the middle (T14-15) and the end (T26-27) of the treatment period.

B1: Mutant FGF21-GalNAc-SA-PEG-20 kDa (conjugate)
chain: MHPIPDSSPLLQFGGQVRQRYLYTDDAQQTEAHLEIREDGTVGGAADQSPESLLQLKALKPGVIQILGVKTSRFLCQRPDGALYGSLHFDPEACSFRELLLEDGYNVYQSEAHGLPLHLPGNKSPHRDPAPRGPARFLPLPGLPPALPEPPGILAPQPPDVGSSDPLSMVGPTQGASPSYAS
epididymal white adipose tissue (eWAT) weight ([1]; 89BIO-100 treated mice (summary)): strongly reduced
eWAT weight ([1]; 1 and 3 mg/kg, vs vehicle): significant decrease in eWAT weight
eWAT weight ([1]; among the three 89BIO-100 groups): no significant difference
total spontaneous activity [2]: higher total spontaneous activity
mean water intake ([3]; T1, DP, 3 mg/kg, vs 0.3 and 1 mg/kg): decreased
mean water intake ([3]; T1, DP, 0.3 and 1 mg/kg, vs Liraglutide): increased
mean water intake ([3]; T1, NP and WD, whatever the dose, vs Liraglutide): increase in mean water intake
mean water intake ([3]; T1, three doses, vs vehicle): no significant difference
cumulative water intake ([3]; T2, 0.3 mg/kg, vs Liraglutide, 5-24 h): increased
cumulative water intake ([3]; T2, 0.3 mg/kg, vs vehicle, at 5, 6, 7, 9, 10 h and 12-24 h): increased
cumulative water intake ([3]; T2, 1 mg/kg, vs Liraglutide, 4-24 h): increased
cumulative water intake ([3]; T2, 1 mg/kg, vs vehicle, 4-24 h): increased
cumulative water intake ([3]; T2, 3 mg/kg, vs Liraglutide, 2-24 h): increased
cumulative water intake ([3]; T2, 3 mg/kg, vs vehicle, 2-24 h): increased
mean water intake ([3]; T2, NP, 0.3 and 1 mg/kg, vs vehicle): increased
mean water intake ([3]; T2, WD, whatever the dose, vs vehicle): increased
cumulative water intake ([3]; T2, between the three 89BIO-100 groups): no significant difference
mean water intake ([3]; T2, whatever the phase, whatever the dose, vs Liraglutide): increase in mean water intake
cumulative water intake ([3]; T14, 1 mg/kg, vs 0.3 mg/kg, at 2 h and 7-24 h): increased
cumulative water intake ([3]; T14, 3 mg/kg, vs 0.3 mg/kg, 3-24 h): increased
cumulative water intake ([3]; T14, 1 and 3 mg/kg, vs Liraglutide, 2-24 h): increased
cumulative water intake ([3]; T14, 1 and 3 mg/kg, vs vehicle, 2-24 h): increased
mean water intake ([3]; T14, NP, 1 and 3 mg/kg, vs 0.3 mg/kg): increased
mean water intake ([3]; T14, WD, 3 mg/kg, vs 0.3 mg/kg): increased
mean water intake ([3]; T14, whatever the phase, 1 and 3 mg/kg, vs Liraglutide): increase in mean water intake
mean water intake ([3]; T14, whatever the phase, 1 and 3 mg/kg, vs vehicle): increased
cumulative water intake ([3]; T15, 1 mg/kg, vs 0.3 mg/kg, 2-24 h): increased
cumulative water intake ([3]; T15, 3 mg/kg, vs 0.3 mg/kg, 1-15 h): increased
cumulative water intake ([3]; T15, 1 and 3 mg/kg, vs Liraglutide, over 24 h): increased
cumulative water intake ([3]; T15, 1 and 3 mg/kg, vs vehicle, over 24 h): increased
cumulative water intake ([3]; T26, 1 mg/kg, vs Liraglutide, at 3 h, 4 h and 6-21 h): increased
cumulative water intake ([3]; T26, 1 mg/kg, vs vehicle, only at 3 h and 4 h): increased
cumulative water intake ([3]; T26, 3 mg/kg, vs 0.3 mg/kg, 5-16 h): increased
cumulative water intake ([3]; T26, 3 mg/kg, vs Liraglutide, 3-24 h): increased
cumulative water intake ([3]; T26, 3 mg/kg, vs vehicle, 3-24 h): increased
mean water intake ([3]; T26, NP and WD, 3 mg/kg, vs vehicle): increased
mean water intake ([3]; T26, NP, 3 mg/kg, vs 0.3 mg/kg): increased
mean water intake ([3]; T26, NP, 1 and 3 mg/kg, vs Liraglutide): increase in mean water intake
mean water intake ([3]; T26, WD, 3 mg/kg, vs Liraglutide): increase in mean water intake
cumulative water intake ([3]; T27, 1 mg/kg, vs vehicle, 2-5 h): increased
cumulative water intake ([3]; T27, 3 mg/kg, vs 0.3 mg/kg, at 1 h and 3-8 h): increased
cumulative water intake ([3]; T27, 3 mg/kg, vs 1 mg/kg, at 3 h, 4 h, 5 h and 7 h): increased
cumulative water intake ([3]; T27, 3 mg/kg, vs Liraglutide, over 24 h): increased
cumulative water intake ([3]; T27, 3 mg/kg, vs vehicle, over 24 h): increased
mean water intake ([3]; T27, NP and WD, 3 mg/kg, vs vehicle and Liraglutide groups): increased
mean water intake ([3]; section On T15 (text prints T14), NP and WD, 1 and 3 mg/kg, vs vehicle): increased
mean water intake ([3]; section On T15, NP and WD, 1 and 3 mg/kg, vs Liraglutide): increase in mean water intake
mean water intake ([3]; section On T15, NP, 1 and 3 mg/kg, vs 0.3 mg/kg): increased
mean water intake ([3]; section On T15, WD, 1 mg/kg, vs 0.3 mg/kg): increased
